Data taken from publication PMC9596381 (2022).
Read-outs that look alike come from different tables or passages of the source.

What was measured:
[1] = target: T1, human glypican-3 core domain, residues 32-483 (hGPC3^core) (human, UniProt P51654 32-483, N-linked glycans at N124 and N241); test: SPR
[2] = target: T1, human glypican-3 core domain, residues …; test: SPR; remark: listed apart in the source

T1 sequence (P51654 32-483): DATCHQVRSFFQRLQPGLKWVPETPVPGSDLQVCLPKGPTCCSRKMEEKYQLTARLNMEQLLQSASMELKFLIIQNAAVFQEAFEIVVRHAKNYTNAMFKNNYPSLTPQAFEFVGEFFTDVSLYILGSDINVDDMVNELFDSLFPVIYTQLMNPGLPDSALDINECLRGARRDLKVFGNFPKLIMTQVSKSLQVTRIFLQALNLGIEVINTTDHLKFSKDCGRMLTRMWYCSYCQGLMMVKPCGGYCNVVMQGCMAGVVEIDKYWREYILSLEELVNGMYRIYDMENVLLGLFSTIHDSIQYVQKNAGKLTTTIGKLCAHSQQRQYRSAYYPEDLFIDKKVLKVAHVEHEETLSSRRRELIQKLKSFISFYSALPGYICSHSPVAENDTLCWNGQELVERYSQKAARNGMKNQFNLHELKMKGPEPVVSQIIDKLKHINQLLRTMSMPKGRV

Kd [1] | Kd [2] | Binder
3300 nM |  | mouse Unc5C ectodomain (domain or fragment, biotin on the Avi-tag) not shown
 | 265 nM | Rattus norvegicus Unc5D residues 32-307 (rUnc5D^IgIgTSP) (domain or fragment, C-mannosylated tryptophans W253 and W256 (TSP1)) not shown
